Data as given in PMC5454392, “Selective BET bromodomain inhibition as an antifungal therapeutic strategy” (Nature Communications, 2017).
Square brackets hold non-standard residues; d marks the D form. Ends that are not written are not given here. Arg(Me2a) = CN(C)C(=N)NCCC[C@H](N)C(=O)O; Lys(Me3) = C[N+](C)(C)CCCC[C@H](N)C(=O)O; Arg(Me2s) = CN=C(NC)NCCC[C@H](N)C(=O)O; pT = C[C@@H](OP(=O)(O)O)[C@H](N)C(=O)O; Lys(Me2) = CN(C)CCCC[C@H](N)C(=O)O; pS = N[C@@H](COP(=O)(O)O)C(=O)O; Lys(Me) = CNCCCC[C@H](N)C(=O)O; Me2a = not defined here

How the values were obtained:
[1] = target: T1, CaBdf1 BD2 (GST-tagged, wild-type) (Candida albicans (strain SC5314 / ATCC …, UniProt Q5A4W8)); assay: histone peptide array (Active Motif MODified), 1 uM GST-tagged bromodomain, anti-GST detection, normalized mean intensity
T1 chain: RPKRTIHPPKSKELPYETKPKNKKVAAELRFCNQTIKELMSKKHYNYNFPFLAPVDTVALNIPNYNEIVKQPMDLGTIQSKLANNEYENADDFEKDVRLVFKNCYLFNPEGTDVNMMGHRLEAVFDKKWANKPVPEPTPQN

[2] = target: T2, CaBdf1 BD1 (GST-tagged, wild-type) (Candida albicans (strain SC5314 / ATCC …, UniProt Q5A4W8)); assay: as above
T2 chain: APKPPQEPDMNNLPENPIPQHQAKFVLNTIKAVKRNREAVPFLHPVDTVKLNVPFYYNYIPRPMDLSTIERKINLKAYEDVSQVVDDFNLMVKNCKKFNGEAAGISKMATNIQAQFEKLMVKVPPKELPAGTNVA

Binder | binding score [1] | binding score [2]
ARTKQTARKSTGGKAPRKQ (A Rme2a T Kme1 Q T A Rme2s Kme2 S T G G K A P R K Q) | 0.00222 | 0.00218
PRKQLATKAA[Arg(Me2a)]KSAPATGG | 0.00148 | 0.00326
PRKQLATKAAR(Me2a)K(Me2)[pS]APATGG (reading uncertain) | 0.00555 | 0.00145
ARTKQTARKSTGGKAPRKQ (A R T K Q T A Rme2s Kme2 pS T G G K A P R K Q) | 0.00333 | 0.00363
ARTKQTARKSTGGKAPRKQ (A Rme2s T Kac Q T A Rme2s Kme1 S T G G K A P R K Q) | 0.00407 | 0.00653
ARTKQTARKSTGGKAPRKQ (A Rme2a T Kme3 Q T A R K S T G G K A P R K Q) | 0.00259 | 0.0109
SGRGKGGKGLGKGGAKRHR (pS G Rme2a G Kac G G K G L G K G G A K R H R) | 0.00444 | 0.0105
AR[pT]K(Ac)QTARKSTGGKAPRKQ | 0.00333 | 0.00725
PDPAK(Ac)SAPAPKKGSK(Ac)KAVT | 0.00962 | 0.0323
SGRGKGGKGLGKGGAKRHR (pS G Rme2s G Kac G G Kac G L G K G G A K R H R) | 0.0352 | 0.054
PRKQLATKAAR(Me2s)K(Me3)SAPATGG | 0.0037 | 0.00181
ARTKQTA[Arg(Me2a)]K(Me)[pS][pT]GGKAPRKQ | 0.0037 | 0.00471
AR(Me2a)TK(Me)QTAR(Me2s)K(Ac)STGGKAPRKQ (reading uncertain) | 0.0037 | 0.0341
ARTKQTARKSTGGKAPRKQ (A R T K Q T A R Kme2 S T G G K A P R K Q) | 0.00296 | 0.00109
PDPAK(Ac)SAPAPKK(Ac)G[pS]KKAVT | 0.00481 | 0.00979
SGRGK(Ac)QGGKARAKAKSRSS | 0.0074 | 0.021
A[Arg(Me2s)]TK(Ac)QTARK(Me)STGGKAPRKQ | 0.00333 | 0.00798
ARTKQTARKSTGGKAPRKQ (A Rme2s T Kme3 Q T A Rme2a Kme1 S T G G K A P R K Q) | 0.00222 | 0.0272
A[Arg(Me2a)]T[Lys(Me3)]QTA[Arg(Me2s)][Lys(Me2)]STGGKAPRKQ | 0.00592 | 0.00326
ARTKQTARKSTGGKAPRKQ (A R T K Q T A Rme2a Kme2 pS pT G G K A P R K Q) | 0.00555 | 0.00471
RKSAPATGGVKKPHRYRPG (R K S A P A T G G V Kme2 K P H R Y R P G) [H3 26-45] | 0.00555 | 0.0058
AR(Me2a)[pT]K(Me2)QTARKSTGGKAPRKQ (reading uncertain) | 0 | 0.00181
ARTKQTARKSTGGKAPRKQ (A R T Kme3 Q T A Rme2s Kme3 S T G G K A P R K Q) | 0.00407 | 0.00399
SGRGKGGKGLGKGGAKRHR (S G Rme2s G Kac G G Kac G L G K G G A K R H R) | 0.0322 | 0.0334
AR[pT]K(Me3)QTARKSTGGKAPRKQ | 0.00296 | 0.00435

Binder | binding score [1] | binding score [2]
ARTKQTARKSTGGKAPRKQ (A Rme2s T Kme1 Q T A R Kme3 S T G G K A P R K Q) | 0.00259 | 0.00326
ARTKQTARKSTGGKAPRKQ (A R T K Q T A R K pS pT G G K A P R K Q) | 0.00407 | 0.00326
ARTKQTARKSTGGKAPRKQ (A R T K Q T A R Kme1 S T G G K A P R K Q) | 0.00407 | 0.00435
PRKQLATKAAR(Me2a)K(Ac)SAPATGG (reading uncertain) | 0.00999 | 0.0189
AR(Me2a)[pT]K(Ac)QTARKSTGGKAPRKQ (reading uncertain) | 0.00111 | 0.00943
SGRGKGGKGLGKGGAKRHR (pS G Rme2a G K G G K G L G K G G A K R H R) | 0.00148 | 0.00471
AR(Me2s)TK(Ac)QTARKSTGGKAPRKQ | 0.00074 | 0.00616
ARTKQTARKSTGGKAPRKQ (A Rme2s T Kme1 Q T A Rme2s Kme2 S T G G K A P R K Q) | 0.00333 | 0.00254
PRKQLATKAA[Arg(Me2a)]K(Me)SAPATGG | 0.00444 | 0.00399
A[Arg(Me2a)]T[Lys(Me3)]QTA[Arg(Me2a)][Lys(Me)]STGGKAPRKQ | 0.00851 | 0.00435
ARTKQTARKSTGGKAPRKQ (A R T Kac Q T A Rme2s Kme3 S T G G K A P R K Q) | 0.00407 | 0.00689
ARTKQTARKSTGGKAPRKQ (A R T K Q T A R Kac pS T G G K A P R K Q) | 0.00407 | 0.00435
PRKQLATKAARK(Me3)[pS]APATGG | 0.00074 | 0.0029
SGRGKGGKGLGKGGAKRHR (pS G Rme2s G K G G K G L G K G G A K R H R) | 0.00333 | 0.00508
SGRGKGGKGLGKGGAKRHR (S G Rme2a G Kac G G Kac G L G K G G A K R H R) | 0.0411 | 0.0558
ARTKQTA[Arg(Me2s)]K(Ac)[pS]TGGKAPRKQ | 0.00296 | 0.00363
ARTKQTARKSTGGKAPRKQ (A Rme2a T Kac Q T A Rme2a K S T G G K A P R K Q) | 0.00592 | 0.00399
SGRGKGGKGLGKGGAKRHR (S G R G K G G Kac G L G Kac G G A Kac R H R) | 0.16 | 0.201
PRKQLATKAAR(Me2s)K(Ac)SAPATGG | 0.00814 | 0.0123
SGRGKQGGKARAK(Ac)AKSRSS | 0.0141 | 0.0943
A[Arg(Me2a)]T[Lys(Me2)]QTA[Arg(Me2s)][Lys(Me2)]STGGKAPRKQ | 0.00666 | 0.0029
[pS]GRGK(Ac)QGGK(Ac)ARAK(Ac)AKSRSS | 0.00888 | 0.0515
PRKQLATKAARKSAPATGG (not fully specified) | 0.00111 | 0.00798
ARTKQTARKSTGGKAPRKQ (A Rme2a T Kme3 Q T A Rme2a Kac S T G G K A P R K Q) | 0.00999 | 0.0392
ARTKQTA[Arg(Me2a)]K(Ac)[pS]TGGKAPRKQ | 0.00407 | 0.00399
